The target in this assay is 80S ribosome from Thermomyces lanuginosus (Thermomyces lanuginosus). The assay is described as follows: co-sedimentation.

Turning to “eukaryotic elongation factor 2 (eEF2) from Thermomyces lanuginosus (natural protein)”, the occupancy relative to Sordarin-trapped eEF2 fell in the range of 60 to 70% and the percent eEF2 bound (GDP only) amounted to 16%.

The values are drawn from PMC2990977.
